Experimental data as given in PMC5627596.

Legend:
[1] = biological target: heterodimeric Fcab Janus448 (one VEGF-binding 448 chain, one Fc-wt chain) (human); assay: ITC; 200 µM VEGF titrated into 40 µM Janus448 or JanusCT6 in the cell; PBS (pH 7.4), 25°C; one-set-of-sites model
[2] = biological target: heterodimeric Fcab JanusCT6 (one VEGF-binding CT6 chain, one Fc-wt chain) (human); assay: as above

Question: “vascular endothelial growth factor (VEGF-A), truncated version, residues 14-108 (domain or fragment)” was tested. Which Kd [1] did it give?
Answer: Its Kd is 26 nM.

Question: What about the dH [1] of the same substance?
Answer: Its dH is -25 kcal/mol.

Question: And the stoichiometry N [1]?
Answer: The stoichiometry N was 0.5.

Question: What about the Kd [2] of the same substance?
Answer: Its Kd is 4 nM.

Question: What about the dH [2] of the same substance?
Answer: Its dH is -34 kcal/mol.

Question: What about the stoichiometry N [2] of the same substance?
Answer: Its stoichiometry N is 0.5.
